Experimental data as given in paper PMC7271519, “The DISC1 R264Q variant increases affinity for the dopamine D2 receptor and increases GSK3 activity” (Molecular Brain, 2020).
Positions count from the first letter of the chain named. Numbers in names are those of the source.

B1: GST-DISC1NT (mouse, wild type) (domain or fragment)
chain: MQGGGPRGAPIHSPSHGADSGHGLPPAVAPQRRRLTRRPGYMRSTAGSGIGFLSPAVGMPHPSSAGLTGQQSQHSQSKAGQCGLDPGSHCQASLVGKPFLKSSLVPAVASEGHLHPAQRSMRKRPVHFAVHSKNDSRQSERLTGSFKPGDSGFWQELLSSDSFKSLAPSLDAPWNKGSRGLKTVKPLASPALNGPADIASLPGFQDTFTSSFSFIQLSLGAAGERGEAEGCLPSREAEPLHQRPQEMAAEASSSDRPHGDPRHLWTFSLHAAPGLADLAQVTRSSSRQSECGTV
modifications: GST carrier omitted; limits not given, N-terminal head region taken from the UniProt feature 1-294
B2: GST-Disc1-L100PNT (mouse) (domain or fragment)
chain: B1 chain with L100P
modifications: GST carrier omitted; limits not given, N-terminal head region taken from the UniProt feature 1-294
B3: GST-DISC1NT (human, wild type) (domain or fragment)
chain: MPGGGPQGAPAAAGGGGVSHRAGSRDCLPPAACFRRRRLARRPGYMRSSTGPGIGFLSPAVGTLFRFPGGVSGEESHHSESRARQCGLDSRGLLVRSPVSKSAAAPTVTSVRGTSAHFGIQLRGGTRLPDRLSWPCGPGSAGWQQEFAAMDSSETLDASWEAACSDGARRVRAAGSLPSAELSSNSCSPGCGPEVPPTPPGSHSAFTSSFSFIRLSLGSAGERGEAEGCPPSREAESHCQSPQEMGAKAASLDGPHEDPRCLSRPFSLLATRVSADLAQAARNSSRPERDMH
modifications: GST carrier omitted; limits not given, N-terminal head region taken from the UniProt feature 1-292
B4: GST-DISC1-NT R264Q (human) (domain or fragment)
chain: B3 chain with R264Q
modifications: GST carrier omitted; limits not given, N-terminal head region taken from the UniProt feature 1-292

Legend:
[1] = target: T1, TAT-D2pep[K211-T225] peptide (UniProt P14416 211-225); experiment: SPR; TAT-D2pep amine-coupled to carboxymethylated dextran chip; mouse GST-Disc1-L100PNT at 25-400 nM, GST-DISC1NT at 100 nM-1.6 uM; 25 °C; TBS-T pH 7.4; 50 ul/min; association 180 s, dissociation 300 s; KD from association and dissociation rates; conditions: both partners purified
T1 construct: dopamine D2 receptor, residues K211-T225; also called D2 [K211-T225]

[2] = target: T1, TAT-D2pep[K211-T225] peptide; experiment: SPR; TAT-D2pep amine-coupled to carboxymethylated dextran chip (600 RU); human GST-DISC1NT or R264Q flowed at 0-4.0 uM; 25 °C; TBS-T (150 mM NaCl, 1 mM CaCl2, 1 mM MgCl2, 10 mM Tris pH 7.4, 0.005% P-20); 50 ul/min; equilibrium analysis; conditions: both partners purified

Binder | Kd [1] [nM] | Kd [2] [nM]
B1 | 760 ± 20 | 
B2 | 100 ± 2 | 
B3 |  | 653 ± 6
B4 |  | 243 ± 3
